The values that follow come from US20230000834A1, “PHYSIOLOGICALLY ACTIVE SUBSTANCE BOUND TO BIOTIN MOIETY, AND COMPOSITION FOR ORAL ADMINISTRATION INCLUDING SAME” (priority 2019, published 2023).

Non-standard residues stand in square brackets, D forms with d. No end group written: not given here. biotin moiety B2 = not defined here; biotin moiety B3 = not defined here; Aib = CC(C)(N)C(=O)O

One data set in a line: in vivo. The note with it: SD, rat.
The test system of the next data set is blood glucose. Kind of data set: Intraperitoneal glucose tolerance test after oral administration, Embodiments 5 and 6. The settings on record: C57BL/6 mice; 500 μg/kg oral at -20 minutes; glucose 2 g/kg intraperitoneal. It counts as in vivo, mice (C57BL/6). Here is the method:
To confirm glucose tolerance, Embodiments 5 and 6 were orally administered to mice, and blood glucose regulation efficacy was measured through an intraperitoneal glucose tolerance test.
To measure peritoneal glucose tolerance in an animal model, 100 μl of specimen (500 μg/kg, SEQ. ID. No. 2) was orally administered at −20 minutes to 9-week-old male mice (C57BL/6), followed by intraperitoneal injection of 200 μl glucose (2 g/kg) and observation of blood glucose changes in blood collected from the tail vein at −20, 0, 20, 40, 60, 90 and 120 minutes.
FIG. 6 is a graph illustrating blood glucose change after administering glucose to each specimen.

As a reminder, the bioavailability is the share of a dose that reaches the circulation, judged against a reference dose that is usually intravenous.

Method for in vivo: The specimens were administered by subcutaneous injection and orally in amounts of 20 μg/kg to experimental rats (SD rat) with a body weight of approximately 200 g, then blood serum was isolated and enzyme-linked immunosorbent assays were carried out to measure change in blood drug concentration over time. Blood samples were collected from the jugular vein. A polypeptide having the amino acid sequence of SEQ. ID. No. 6 was used as the control.

In “in vivo”, `CC[C@H](C)[C@H](NC(=O)[C@H](CCC(=O)O)NC(=O)[C@H](CO)NC(=O)[C@@H](NC(=O)[C@@H](N)CO)C(C)C)C(=O)N[C@@H](CCC(N)=O)C(=O)N[C@@H](CC(C)C)C(=O)N[C@@H](CCSC)C(=O)N[C@@H](Cc1c[nH]cn1)C(=O)N[C@@H](CC(N)=O)C(=O)N[C@@H](CC(C)C)C(=O)NCC(=O)N[C@@H](CCCCN)C(=O)N[C@@H](Cc1c[nH]cn1)C(=O)N[C@@H](CC(C)C)C(=O)N[C@@H](CC(N)=O)C(=O)N[C@@H](CO)C(=O)N[C@@H](CCSC)C(=O)N[C@@H](CCC(=O)O)C(=O)N[C@@H](CCCNC(=N)N)C(=O)N[C@H](C(=O)N[C@@H](CCC(=O)O)C(=O)N[C@@H](Cc1c[nH]c2ccccc12)C(=O)N[C@@H](CC(C)C)C(=O)N[C@@H](CCCNC(=N)N)C(=O)N[C@@H](CCCCN)C(=O)N[C@@H](CCCCN)C(=O)N[C@@H](CC(C)C)C(=O)N[C@@H](CCC(N)=O)C(=O)N[C@@H](CC(=O)O)C(=O)N[C@H](C(=O)N[C@@H](Cc1c[nH]cn1)C(=O)N[C@@H](CC(N)=O)C(=O)N[C@@H](Cc1ccccc1)C(=O)N[C@@H](CSC1CC(=O)N(CCC(=O)NC(CCCCNC(=O)CCCCC2SCC3NC(=O)NC32)C(=O)NC(CCCCNC(=O)CCCCC2SCC3NC(=O)NC32)C(N)=O)C1=O)C(=O)O)C(C)C)C(C)C` (stereo partly shown) [Embodiment 8] came in with a bioavailability of 7.8%.

In turn, `CC[C@H](C)[C@H](NC(=O)[C@H](CCC(=O)O)NC(=O)[C@H](CO)NC(=O)[C@@H](NC(=O)[C@@H](N)CO)C(C)C)C(=O)N[C@@H](CCC(N)=O)C(=O)N[C@@H](CC(C)C)C(=O)N[C@@H](CCSC)C(=O)N[C@@H](Cc1c[nH]cn1)C(=O)N[C@@H](CC(N)=O)C(=O)N[C@@H](CC(C)C)C(=O)NCC(=O)N[C@@H](CCCCN)C(=O)N[C@@H](Cc1c[nH]cn1)C(=O)N[C@@H](CC(C)C)C(=O)N[C@@H](CC(N)=O)C(=O)N[C@@H](CO)C(=O)N[C@@H](CCSC)C(=O)N[C@@H](CCC(=O)O)C(=O)N[C@@H](CCCNC(=N)N)C(=O)N[C@H](C(=O)N[C@@H](CCC(=O)O)C(=O)N[C@@H](Cc1c[nH]c2ccccc12)C(=O)N[C@@H](CC(C)C)C(=O)N[C@@H](CCCNC(=N)N)C(=O)N[C@@H](CCCCN)C(=O)N[C@@H](CCCCN)C(=O)N[C@@H](CC(C)C)C(=O)N[C@@H](CCC(N)=O)C(=O)N[C@@H](CC(=O)O)C(=O)N[C@H](C(=O)N[C@@H](Cc1c[nH]cn1)C(=O)N[C@@H](CC(N)=O)C(=O)N[C@@H](Cc1ccccc1)C(=O)N[C@@H](CSC1CC(=O)N(CCC(=O)NC(CCCCNC(=O)CCCCC2SCC3NC(=O)NC32)C(=O)NC(CCCCNC(=O)CCCCC2SCC3NC(=O)NC32)C(=O)NC(CCCCNC(=O)CCCCC2SCC3NC(=O)NC32)C(N)=O)C1=O)C(=O)O)C(C)C)C(C)C` (stereo partly shown) [Embodiment 9] came in with a bioavailability in the data set “in vivo” of 4.9%.

“Embodiment 5: polypeptide of SEQ. ID. No. 8 bonded to biotin moiety B2 at C30 (H[Aib]QGTFTSDYSKYLDEQAAKEFVQWLMNTC(biotin moiety B2); reading uncertain)”: the “glucose regulating ability (blood glucose change, FIG. 6)” value in the data set on blood glucose is reported as “glucose regulating ability”.

Take “Embodiment 6: polypeptide of SEQ. ID. No. 8 bonded to biotin moiety B3 at C30 (H[Aib]QGTFTSDYSKYLDEQAAKEFVQWLMNTC(biotin moiety B3); reading uncertain)”: in the data set with blood glucose, the “glucose regulating ability (blood glucose change, FIG. 6)” value is “glucose regulating ability”.
